Assay results taken from patent publication US20250277018A1 (INHIBRX BIOSCIENCES, published 2025).

Experiments:
IL-4R = target: T1, IL-4R (UniProt P24394 26-232, limits assumed); assay: ELISA on coated IL-4R
T1 construct: also called second target
Experimental: The plates were washed 3× times in 0.05% PBST (150 μL/well) and then blocked with Casein in 0.05% PBST (200 μL/well) for 2 hours at RT. The plates were washed 3× times in 0.05% PBST, and 100 μL of titrated test articles in 0.05% PBST were added to the wells of the plate (starting 100 nM, 1:3 dilutions, 11-point titration) and incubated at 4° C. for 1 hour. […] Plates were then washed again before addition of TMB substrate (100 μL/well) that was allowed to reach RT before addition to the plate. The HRP-TMB reaction was allowed to develop for approximately 10 minutes, then TMB stop buffer was added (100 μL/well) and the absorbance was measured at 450 nm on a plate reader with absorbance at 650 nm subtracted (Molecular Devices). The data were plotted and analyzed using GraphPad Prism analysis software.

Human serum albumin [1] = target: Human serum albumin (human); assay: ELISA, albumin coated, monomeric sdAb titrated
Murine serum albumin [2] = target: Murine serum albumin (mouse); assay: ELISA, albumin coated, monomeric sdAb titrated
Chain of Murine serum albumin (mouse) (chain, as listed by the source): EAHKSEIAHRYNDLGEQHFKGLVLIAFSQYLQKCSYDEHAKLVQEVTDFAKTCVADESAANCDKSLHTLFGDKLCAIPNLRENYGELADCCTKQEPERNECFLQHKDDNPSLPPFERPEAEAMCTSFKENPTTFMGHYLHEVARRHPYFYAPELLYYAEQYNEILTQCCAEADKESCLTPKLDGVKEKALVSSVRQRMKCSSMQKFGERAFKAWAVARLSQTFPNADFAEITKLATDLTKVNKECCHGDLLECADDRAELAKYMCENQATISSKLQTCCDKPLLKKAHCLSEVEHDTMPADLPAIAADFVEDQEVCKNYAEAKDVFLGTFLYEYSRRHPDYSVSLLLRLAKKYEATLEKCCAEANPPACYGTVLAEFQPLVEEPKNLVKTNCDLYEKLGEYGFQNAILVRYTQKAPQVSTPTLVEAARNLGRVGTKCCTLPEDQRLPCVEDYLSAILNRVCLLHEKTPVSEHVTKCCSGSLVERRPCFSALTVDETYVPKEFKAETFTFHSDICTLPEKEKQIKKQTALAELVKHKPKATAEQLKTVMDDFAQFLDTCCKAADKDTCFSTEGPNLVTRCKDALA

[3] = target: T2, Cynomolgus monkey serum albumin (cynomolgus monkey); assay: ELISA, albumin coated, monomeric sdAb titrated
T2 chain: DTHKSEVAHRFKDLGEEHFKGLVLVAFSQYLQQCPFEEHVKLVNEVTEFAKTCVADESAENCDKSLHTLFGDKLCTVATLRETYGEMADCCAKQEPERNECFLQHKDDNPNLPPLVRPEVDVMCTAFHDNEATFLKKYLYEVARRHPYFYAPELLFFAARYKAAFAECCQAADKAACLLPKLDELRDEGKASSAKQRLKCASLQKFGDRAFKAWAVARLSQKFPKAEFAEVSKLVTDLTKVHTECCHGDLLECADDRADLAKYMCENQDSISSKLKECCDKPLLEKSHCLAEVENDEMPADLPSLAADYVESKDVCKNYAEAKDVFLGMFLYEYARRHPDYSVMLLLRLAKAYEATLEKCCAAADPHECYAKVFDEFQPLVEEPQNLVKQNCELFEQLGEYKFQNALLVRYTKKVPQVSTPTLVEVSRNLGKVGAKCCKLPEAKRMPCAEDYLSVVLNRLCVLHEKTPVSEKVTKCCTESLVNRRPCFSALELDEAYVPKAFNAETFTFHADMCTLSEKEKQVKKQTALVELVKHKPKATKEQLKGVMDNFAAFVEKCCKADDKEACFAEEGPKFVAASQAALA

Rat serum albumin [4] = target: T3, Rat serum albumin (rat); assay: ELISA, albumin coated, monomeric sdAb titrated
T3 chain: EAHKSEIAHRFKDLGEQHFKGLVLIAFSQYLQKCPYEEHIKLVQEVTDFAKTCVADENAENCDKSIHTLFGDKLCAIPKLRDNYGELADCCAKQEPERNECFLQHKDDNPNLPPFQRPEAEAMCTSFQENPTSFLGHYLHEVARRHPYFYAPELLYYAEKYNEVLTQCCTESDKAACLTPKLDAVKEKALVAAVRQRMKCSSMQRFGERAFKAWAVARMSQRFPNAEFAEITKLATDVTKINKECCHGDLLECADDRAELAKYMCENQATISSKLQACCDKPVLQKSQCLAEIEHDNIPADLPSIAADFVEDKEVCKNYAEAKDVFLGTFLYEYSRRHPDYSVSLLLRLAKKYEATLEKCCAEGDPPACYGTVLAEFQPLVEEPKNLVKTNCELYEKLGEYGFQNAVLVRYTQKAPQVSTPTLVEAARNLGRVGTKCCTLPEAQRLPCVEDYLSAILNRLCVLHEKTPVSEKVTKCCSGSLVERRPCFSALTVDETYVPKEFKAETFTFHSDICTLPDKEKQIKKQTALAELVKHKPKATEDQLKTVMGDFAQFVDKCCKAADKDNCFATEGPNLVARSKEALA

Human serum albumin [5] = target: Human serum albumin (human); assay: ELISA on coated recombinant albumin, pH 7.4, anti-human IgG1 HRP; apparent affinity
Murine serum albumin [6] = target: Murine serum albumin (mouse); assay: as above
[7] = target: T2, Cynomolgus monkey serum albumin; assay: as above
Rat serum albumin [8] = target: T3, Rat serum albumin; assay: as above

B1: cx12583 (VHH)
chain: GGGGDKTHTCPPCPAPGGPSVFLFPPKPKDTLMISRTPEVTCVVVDVSHEDPEVKFNWYVDGVEVHNAKTKPREEQYNSTYRVVSVLTVLHQDWLNGKEYKCKVSNKALPAPIEKTISKAKGQPREPQVYTLPPSRDELTKNQVSLTCLVKGFYPSDIAVEWESNGQPENNYKTTPPVLDSDGSFFLYSKLTVDKSRWQQGNVFSCSVMHEALHNHYTQKSLSLSPGSGGGSEVQLVESGGGEVQPGGSLRLSCAASGFTFSTSGMVWVRQAPGKGLEWVSTISDDARITVYAESVKGRFTISRDNAKNTVYLQMNSLRAEDTAVYYCATYRAGSRIGSYEDYYRGQGTLVTVKP
notes: Homodimer; also called Fc Region-GS6-VHH
B1: no binding (tested: 100 nM (top of titration)) (IL-4R).

B2: cx5009, hz4A01v51 VHH-hIgG1-xELL-NNT-Fc (VHH)
VHH: EVQLVESGGGEVQPGGSLRLSCAASGFTFSTSGMVWVRQAPGKGLEWVSTISDDARITVYAESVKGRFTISRDNAKNTVYLQMNSLRAEDTAVYYCATYRAGSRIGSYEDYYRGQGTLVTVKP
notes: also called Hz4A01v51-NNT-hFc; 4A01v51-NNT-hFc
In the case of B2, the Kd (Human serum albumin [1]) is reported as less than 0.3 nM, the maximal binding (Human serum albumin [1]) is reported as greater than 90% and the Kd (Murine serum albumin [2]) is reported as less than 0.3 nM. It also gave a maximal binding (Murine serum albumin [2]) greater than 90%, a Kd [3] of less than 0.3 nM and a maximal binding [3] greater than 90%. It also gave a Kd (Rat serum albumin [4]) of less than 0.3 nM, a maximal binding (Rat serum albumin [4]) greater than 90% and a Kd (Human serum albumin [5]) of roughly 0.2 nM. The Kd (Murine serum albumin [6]) was roughly 0.2 nM, the Kd [7] was roughly 0.2 nM and the Kd (Rat serum albumin [8]) was roughly 0.2 nM.

B3: cx12584 (VHH)
chain: GGGGDKTHTCPPCPAPGGPSVFLFPPKPKDTLMISRTPEVTCVVVDVSHEDPEVKFNWYVDGVEVHNAKTKPREEQYNSTYRVVSVLTVLHQDWLNGKEYKCKVSNKALPAPIEKTISKAKGQPREPQVYTLPPSRDELTKNQVSLTCLVKGFYPSDIAVEWESNGQPENNYKTTPPVLDSDGSFFLYSKLTVDKSRWQQGNVFSCSVMHEALHNHYTQKSLSLSPGGGSGGGSGGGSEVQLVESGGGEVQPGGSLRLSCAASGFTFSTSGMVWVRQAPGKGLEWVSTISDDARITVYAESVKGRFTISRDNAKNTVYLQMNSLRAEDTAVYYCATYRAGSRIGSYEDYYRGQGTLVTVKP
notes: Homodimer; also called Fc Region-GS12-VHH
B3: no binding (tested: 100 nM (top of titration)) (IL-4R).
